B1: OR4K15 (parent)
chain: GUUAACGGUCAUAGGCCAUGGAAACUAGGAGCACCAUUUCGCUGCCAGUGAAGAAAUGAACAAAGAAAAUCUGGGCCAGGCAGGCAUCAAAAGAAAUAGUCUUGCGCUCAACCAGAAAGUCUGUAAUCAUUUUAAGGGUA

Variants of: B1
Assay: self-cleavage, relative activity (ratio to wild type); higher = more cleavage; in vitro, sequencing; the parent is a self-cleaving ribozyme

First: GUUAACGGUCAUAGGCCAUGGAAACUAGGAGCACCAUUUCGCUGCCGGUGAAGAAAUGAACAAAGAAAAUCUGGGCCAGGCAGGCAUCAAAAGAGAUAGUCUUGCGCUCAACCAGAAAGUCUGUAAUCAUUUUAAGGGUA [A47G A95G]
Second: GUUAACGGUCAUAGGCCAUGGAAACUAGGAGCACCAUUUCGCUGCCAGUGAAGGAAUGAACAAAGAAAAUCUGGGCCAGGCAGGCAUCAAAAGAAAUAGUCUUGCGCUCAACCAGAAAGUCUGUAAUCAUUCUAAGGGUA [A54G U132C]
The self-cleavage of the first is higher: 1.71 for the first, 1.28 for the second.

Going from GUUAACGGUCAUAGGCCAUGGAAACUAGGAGCACCAUUUCGCUGCCAGUGAAGAAAUGAACAAGGUAAAUCUGGGCCAGGCAGGCAUCAAAAGAAAUAGUCUUGCGCUCAACCAGAAAGUCUGUAAUCAUUUUAAGGGUA [A64G A66U] to GUUAACGGUCAUAGGCCAUGGAAACUAGGAGCACCAUUUCGCUGCCAGUGAAGGAAUGAACAAAGAAAAUCUGGGCCAGGCAGGCAUCAAAAGAAAUAGUCAUGCGCUCAACCAGAAAGUCUGUAAUCAUUUUAAGGGUA [A54G U102A], the self-cleavage falls from 0.44 to 0.17.

Compared with GUUAACGGUCAUAGGCCAUGGAAACUAGGAGCACCAUUUCACAGCCAGUGAAGAAAUGAACAAAGAAAAUCUGGGCCAGGCAGGCAUCAAAAGAAAUAGUCUUGCGCUCAACCAGAAAGUCUGUAAUCAUUUUAAGGGUA [G41A U43A], GUUAACGGUCAUAGGCCAUGGAAACUAGGAGCACCAUUUCGCUGCCAGUGAAGAAAUGGACAAAGAAAAUCUGGGCCAGGCAGGCAUCAAAAGAGAUAGUCUUGCGCUCAACCAGAAAGUCUGUAAUCAUUUUAAGGGUA [A59G A95G] is lower in self-cleavage: 1.69 for the first, 1.68 for the second.

Compared with GUUAACGGUCAUAGGCCAUGGAAACUAGGAGCACCACUUCGCUGCCAGUGAAGAAAUGAACAAAGAAAAUCUGGGCCAGGCAGGCAUCAAAAGAAAUAGUCUUGCGCUCAACCGGAAAGUCUGUAAUCAUUUUAAGGGUA [U37C A114G], GUUAACGGUCAUAGGCCAUGGAAACUAGGAGCAUCAUUUCGCUGCCAGUGAAGAAAUGAACAAAGAAAAUCUGGGCCAGGCAGGCAUCAAAAGAAAUAGUCUUGCGCUCAACCAGAAAGUCUGUAACCAUUUUAAGGGUA [C34U U127C] is higher in self-cleavage: 0.34 for the first, 1.39 for the second.

First: GUUAACGGUCAUAGGCCAUGGAAACUAGGAGCACCAUUUCGCUGCCAGUGAAGUAAUGAACAAAGAAAAUCUGGGCCAGGCAGGCAUCAAAAGAAAUAGUCUUGCGCUCAACCGGAAAGUCUGUAAUCAUUUUAAGGGUA [A54U A114G]
Second: GUUAACGGUCAUAGGCCAUGGAAACUAGGAGCACCAUUUCGCUGCCAGUGAAGAAAUGAACAAAGAAAAUCUGGGCCAGGCAGGCAUCAAAAGAAAUAGUCUUGCGCUCAACCAGAAAGUCUGUAGUCAUUUUAAAGGUA [A126G G136A]
The self-cleavage of the first is lower: 0.14 for the first, 1.4 for the second.

First: GUUAACGGUCAUAGGCCAUGGAACCUAGGAGCACCAUUUCGCUGCCAGUGAAGAAAUGGACAAAGAAAAUCUGGGCCAGGCAGGCAUCAAAAGAAAUAGUCUUGCGCUCAACCAGAAAGUCUGUAAUCAUUUUAAGGGUA [A24C A59G]
Second: GUUAACGGUCAUAGGCCAUGGAAACUAGGAGCACCAUUUCGCUGUCAGUGAAGAAAUGAACAAAGAGAAUCUGGGCCAGGCAGGCAUCAAAAGAAAUAGUCUUGCGCUCAACCAGAAAGUCUGUAAUCAUUUUAAGGGUA [C45U A67G]
The self-cleavage of the first is lower: 1.51 for the first, 1.94 for the second.

Compared with GUUAACGGUCAUAGGCCAUGGAGACUAGGAGCACCAUUUCGCUGCCAGUGAAGAAAUGAACAGAGAAAAUCUGGGCCAGGCAGGCAUCAAAAGAAAUAGUCUUGCGCUCAACCAGAAAGUCUGUAAUCAUUUUAAGGGUA [A23G A63G], GCUAACGGUCAUAGGCCAUGGAAACUAGGAGCACCAUUUCGCUGCCAGUGAAGAAAUGAACAAAGAAAAUCUGGGCCAGGCAGGCAUCAAAAGAAAUAGUCUUGCGCUUAACCAGAAAGUCUGUAAUCAUUUUAAGGGUA [U2C C109U] is lower in self-cleavage: 1.01 for the first, 0.29 for the second.

First: GUUAACGGUCAUAGGCCUUGGAAACUAGGAGCACCAUUUCGCUGCCAGUGAGGAAAUGAACAAAGAAAAUCUGGGCCAGGCAGGCAUCAAAAGAAAUAGUCUUGCGCUCAACCAGAAAGUCUGUAAUCAUUUUAAGGGUA [A18U A52G]
Second: GUUAACGGUCAUAGGCCAUGGAAACUAGGGGCACCAUUUUGCUGCCAGUGAAGAAAUGAACAAAGAAAAUCUGGGCCAGGCAGGCAUCAAAAGAAAUAGUCUUGCGCUCAACCAGAAAGUCUGUAAUCAUUUUAAGGGUA [A30G C40U]
The self-cleavage of the first is higher: 1.7 for the first, 0.89 for the second.

Compared with GUUAACGGUCAUAGGCCAUGGAAACUAGGAGCACCAUUUCGCUGCCAGUGAAGAAAUGAACAAAGAAAAUCUGGGCCAGGCAGGCAUCAAAAGAAAUAGUCUUGCGCUCAACCAGAAAGUUUGUAAUCACUUUAAGGGUA [C121U U130C], GUUAACGGUCAUAGGCCAUGGAAACUGGGAGCACCAUUUCGCUGCCAGUGAAGAGAUGAACAAAGAAAAUCUGGGCCAGGCAGGCAUCAAAAGAAAUAGUCUUGCGCUCAACCAGAAAGUCUGUAAUCAUUUUAAGGGUA [A27G A55G] is higher in self-cleavage: 0.92 for the first, 1.57 for the second.

Compared with GUUAACGGUCAUAGGCCAUGGAAACUAGGGGCACCAUUUCGCUGCCAGUGAAGAAAUGAACAAAGAAAAUCUGGGCCAGGCCGGCAUCAAAAGAAAUAGUCUUGCGCUCAACCAGAAAGUCUGUAAUCAUUUUAAGGGUA [A30G A82C], GUUAACGGUCAUAGGCCAUGGAAACUAGGAGCACCAUUUCGCUGCCAGUGAAGAAAUGAACAAAGAAAAUCUGGGCCCGGCAGGCAUCAAAAGAAAUAGUCAUGCGCUCAACCAGAAAGUCUGUAAUCAUUUUAAGGGUA [A78C U102A] is lower in self-cleavage: 0.07 for the first, 0.02 for the second.

GUUAACGGCCAUAGGUCAUGGAAACUAGGAGCACCAUUUCGCUGCCAGUGAAGAAAUGAACAAAGAAAAUCUGGGCCAGGCAGGCAUCAAAAGAAAUAGUCUUGCGCUCAACCAGAAAGUCUGUAAUCAUUUUAAGGGUA [U9C C16U] showed a self-cleavage of 1.59.

Source: the RNAGym collection of RNA variant scans (doi:10.7554/elife.90254)
